Positions count from the first letter of the chain named.
T1: Mouse ST2 (mouse, UniProt P14719 27-332, limits assumed)
T1 construct: also called mouse ST2 protein
T1 sequence (looked up): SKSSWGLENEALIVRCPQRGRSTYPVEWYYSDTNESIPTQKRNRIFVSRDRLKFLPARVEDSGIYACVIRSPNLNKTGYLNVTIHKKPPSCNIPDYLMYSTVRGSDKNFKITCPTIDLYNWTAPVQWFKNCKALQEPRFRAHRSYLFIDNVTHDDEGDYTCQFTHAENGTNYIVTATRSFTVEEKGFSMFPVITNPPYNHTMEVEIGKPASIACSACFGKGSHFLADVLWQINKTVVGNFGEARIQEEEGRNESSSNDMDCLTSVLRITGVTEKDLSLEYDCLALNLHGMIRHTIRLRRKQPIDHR

B1: Human ST2 IgG1 Antibody 99 (antibody, V domains shown)
VH: EVQLLESGGGLVQPGGSLRLSCAASGFTFSDYYMNWVRQAPGKGLEWVSTISGFGESTFYADSVKGRFTISRDNSKNTLYLQMNSLRAEDTAVYYCARLGAARAFDIWGQGTTVTVSS
VL: DIQMTQSPSSLSASVGDRVTITCRASQSIGSWMAWYQQKPGKAPKLLIYAASTLQSGVPSRFSGSGSGTDFTLTISSLQPEDFATYYCQQSYTTPITFGPGTKVDIKR
notes: IgG1, kappa; also called ST2 Antibody 99
B2: Human ST2 IgG1 Antibody 45 (antibody, V domains shown)
VH: QVQLVQSGAEVKKPGSSVKVSCKASGGTFSSYAISWVRQAPGQGLEWMGGIVPIFETANYAQKFQGRVTITADESTSTAYMELSSLRSEDTAVYYCARDTPNFDYWGQGTLVTVSS
VL: not shown
notes: IgG1, kappa; also called ST2 Antibody 45
B3: Human ST2 IgG1 Antibody 39 (antibody, V domains shown)
VH: QVQLVQSGAEVKKPGSSVKVSCKASGYTFTSYYMQWVRQAPGQGLEWMGGIIPIFGTANYAQKFQGRVTITADESTSTAYMELSSLRSEDTAVYYCARARFGAVDYWGQGTLVTVSS
VL: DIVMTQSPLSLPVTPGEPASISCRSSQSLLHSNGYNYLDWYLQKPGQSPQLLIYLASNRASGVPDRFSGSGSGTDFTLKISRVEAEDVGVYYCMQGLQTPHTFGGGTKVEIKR
notes: IgG1, kappa; also called ST2 Antibody 39
B4: Human ST2 IgG1 Antibody 49 (antibody, V domains shown)
VH: QVQLVQSGAEVKKPGASVKVSCKASGGTLSSYAISWVRQAPGQGLEWMGGISPYNGKANYAEKLQGRVTMTRDTSTSTVYMELSSLRSEDTAVYYCAIRSIAAREGVYYYYMDVWGKGTTVTVSS
VL: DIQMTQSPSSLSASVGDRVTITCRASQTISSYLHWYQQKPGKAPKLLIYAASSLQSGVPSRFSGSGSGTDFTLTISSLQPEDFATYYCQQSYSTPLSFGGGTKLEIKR
notes: IgG1, kappa; also called ST2 Antibody 49
B5: Human ST2 IgG1 Antibody 44 (antibody, V domains shown)
VH: EVQLLESGGGLVKPGGSLRLSCAASGFTFSSYWMSWVRQAPGKGLEWVSAISGTAINTYYADSVKGRFTISRDDSKNTLYLQMNSLKTEDTAVYYCARVRRDSSGGGAFDIWGQGTMVTVSS
VL: DIQMTQSPSSLSASVGDRVTITCRASQGISNNLNWYQQKPGKAPKLLIYAASSLQTGVPSRFSGSGSGTDFTLTISSLQPEDFATYYCQQSYSTPPTFGQGTKVEIKR
notes: IgG1, kappa; also called ST2 Antibody 44
B6: Human ST2 IgG1 Antibody 98 (antibody, V domains shown)
VH: B5 VH
VL: B5 VL
notes: IgG1, kappa; also called ST2 Antibody 98
B7: Human ST2 IgG1 Antibody 83 (antibody, V domains shown)
VH: EVQLLESGGGLVKPGGSLRLSCAASGFTFSSYWMSWVRQAPGKGLEWVSAIGTAGDTYYPGSVKGRFTISRDDSKNTLYLQMNSLKTEDTAVYYCAILRRDKVWPFDYWGQGTLVTVSS
VL: B5 VL with G28S, N31S, N32H, N34H, T56S, T94S, P96V, Q100G
notes: IgG1, kappa; also called ST2 Antibody 83
B8: Human ST2 IgG1 Antibody 89 (antibody, V domains shown)
VH: B5 VH
VL: B5 VL
notes: IgG1, kappa; also called ST2 Antibody 89
B9: Human ST2 IgG1 Antibody 54 (antibody, V domains shown)
VH: EVQLLESGGGLVQPGGSLRLSCAASGFTVSSNYMSWVRQAPGKGLEWVSAISGSGGSTYYADSVKGRFTISRDNSKNTLYLQMNSLRAEDTAVYYCARGRFGSRDVWGKGTTVTVSS
VL: not shown
notes: IgG1, kappa; also called ST2 Antibody 54
B10: Human ST2 IgG1 Antibody 78 (antibody, V domains shown)
VH: EVQLLESGGGLVQPGGSLRLSCAASDFNFKNAWMSWVRQAPGKGLEWVSAISGNGAGTYYADSVKGRFTISRDNSKNTLYLQMNSLRAEDTAVYYCARVGETGAFDIWGQGTTVTVSS
VL: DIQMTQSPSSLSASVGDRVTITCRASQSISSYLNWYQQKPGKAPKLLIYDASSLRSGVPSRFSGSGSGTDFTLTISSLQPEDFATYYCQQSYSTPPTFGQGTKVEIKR
notes: IgG1, kappa; also called ST2 Antibody 78
B11: Human ST2 IgG1 Antibody 41 (antibody, V domains shown)
VH: QVQLVQSGAEVKKPGSSVKVSCKASGYTFTDYQMHWVRQAPGQGLEWVGVINPGGGSTTYAQTFQGRVTITADESTSTAYMELSSLRSEDTAVYYCARGGVEYSSSWDYYYYYGMDVWGQGTTVTVSS
VL: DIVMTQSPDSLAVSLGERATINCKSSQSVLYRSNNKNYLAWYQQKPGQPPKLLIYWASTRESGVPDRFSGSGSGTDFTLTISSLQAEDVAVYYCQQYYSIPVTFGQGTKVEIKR
notes: IgG1, kappa; also called ST2 Antibody 41
B12: Human ST2 IgG1 Antibody 70 (antibody, V domains shown)
VH: QVQLVQSGAEVKKPGSSVKVSCKASGYAFTDYFIHWVRQAPGQGLEWMGGIIPIFGTANYAQKFQGRVTITADKSTSTAYMELSSLRSEDTAVYYCARVAYGAFDIWGQGTMVTVSS
VL: EIVMTQSPATLSVSPGERATLSCRASQSVSSSYLAWYQQKPGQAPRLLIYGASTRATGIPARFSGSGSGTEFTLTISSLQSEDFAVYYCQQYNNWPLTFGGGTKVEIKR
notes: IgG1, kappa; also called ST2 Antibody 70
B13: Human ST2 IgG1 Antibody 63 (antibody, V domains shown)
VH: QVQLVQSGAEVKKPGSSVKVSCKASGGTFSSDAINWVRQAPGQGLEWMGGIVPAFGTANYAQKFQGRVTITADESTSTAYMELSSLRSEDTAVYYCARSSSSWPYYYYYMDVWGKGTTVTVSS
VL: DIVMTQSPLSLPVTPGEPASISCRSSQSLLLNNGNNFIDWYLQKPGQSPQLLIYAASILQGGVPDRFSGSGSGTDFTLKISRVEAEDVGVYYCMQALQTPPTFGQGTKVEIKR
notes: IgG1, kappa; also called ST2 Antibody 63
B14: Human ST2 IgG1 Antibody 52 (antibody, V domains shown)
VH: QVQLVQSGAEVKKPGSSVKVSCKASGGTFSNYAISWVRQAPGQGLEWMGWISAYNGNTNYAQKFQGRVTITADESTSTAYMELSSLRSEDTAVYYCARLSTVTTRPYYYYGMDVWGQGTTVTVSS
VL: DIVMTQSPLSLPVTPGEPASISCRSSQSLLHSNGYNYLDWYLQKPGQSPQLLIYAASSLQGGVPDRFSGSGSGTDFTLKISRVEAEDVGVYYCMQGTHWPTFGQGTKVEIKR
notes: IgG1, kappa; also called ST2 Antibody 52
B15: Human ST2 IgG1 Antibody 76 (antibody, V domains shown)
VH: QVQLVQSGAEVKKPGSSVKVSCKASGYTFTDYYMHWVRQAPGQGLEWMGVIIPVLGAAKYAQKFQGRVTITADESTSTAYMELSSLRSEDTAVYYCAKGWGAFDIWGQGTMVTVSS
VL: EIVMTQSPATLSVSPGERATLSCRASQSVSSYLAWYQQKPGQAPRLLIYGASTRASGIPARFSGSGSGTEFTLTISSLQSEDFAVYYCQQYYSYPWTFGQGTKVEIKR
notes: IgG1, kappa; also called ST2 Antibody 76
B16: Human ST2 IgG1 Antibody 86 (antibody, V domains shown)
VH: QVQLVQSGAEVKKPGSSVKVSCKASGGTFSNYAISWVRQAPGQGLEWMGGIIPIFGTANYAQKFQGRVTITADESTSTAYMELSSLRSEDTAVYYCAKDLGGWFNLFDPWGQGTLVTVSS
VL: B15 VL with S28G, S56T, Y92R, Y94F, W96L, Q100G
notes: IgG1, kappa; also called ST2 Antibody 86
B17: Human ST2 IgG1 Antibody 57 (antibody, V domains shown)
VH: QVQLVQSGAEVKKPGASVKVSCKASGYTFTGYYMHWVRQAPGQGLEWMGVINPSGGSTSYAQKFQGRVTMTRDTSTSTVYMELSSLRSEDTAVYYCARGDYYYGSGSDYYYYYGMDVWGQGTLVTVSS
VL: DIQMTQSPSSLSASVGDRVTITCRASQGVTSWLAWYQQKPGKAPKLLIYAASTLQSGVPSRFSGSGSGTDFTLTISSLQPEDFATYYCQQANSFPLTFGGGTKVEIKR
notes: IgG1, kappa; also called ST2 Antibody 57

Biological target: T1, Mouse ST2
Experiment: SPR (Carterra), antibody immobilized, ST2 analyte, 1:1
Procedure: Binding of the reformatted human ST2 antibodies to the human and mouse ST2 proteins was evaluated by surface plasmon resonance (SPR), using a high throughput antibody screening and characterization platform from Carterra (Salt Lake City, Utah).

Row | Kd [nM] | koff [s⁻¹] | kon [M⁻¹ s⁻¹] | Binder
1 | 419 | 0.098 | 230000 | B1
2 | 1400 | 0.13 | 95000 | B2
3 | 3400 | 0.14 | 42000 | B3
4 | 436 | 0.12 | 270000 | B4
5 | 999 | 0.11 | 110000 | B5
6 | 975 | 0.12 | 120000 | B6
7 | 438 | 0.063 | 140000 | B7
8 | 989 | 0.1 | 100000 | B8
9 | 2700 | 0.13 | 50000 | B9
10 | 744 | 0.13 | 180000 | B10
11 | 845 | 0.11 | 140000 | B11
12 | 3900 | 0.13 | 33000 | B12
13 | 2400 | 0.15 | 62000 | B13
14 | 2700 | 0.16 | 59000 | B14
15 | 778 | 0.14 | 180000 | B15
16 | 507 | 0.098 | 190000 | B16
17 | 3100 | 0.16 | 51000 | B17
